The values below come from paper PMC6941110, “Mutation of Aspartate 238 in FAD Synthase Isoform 6 Increases the Specific Activity by Weakening the FAD Binding” (International Journal of Molecular Sciences, 2019).

Usually Km stands for the concentration of substrate that gives half-maximal velocity. What is called kcat is the maximal rate divided by the concentration of active sites.

Common to all, as to assay: purified protein
Format in all cases: biochemical, Homo sapiens

Series [1] has as its system T1, Cc1cc2nc3c(=O)[nH]c(=O)nc-3n(C[C@H](O)[C@H](O)[C@H](O)COP(=O)(O)O)c2cc1C.
T1 construct: 320-residue isoform 6, FADSy domain only, lacks N-terminal FADHy domain; monomer
To be noted: forward reaction, 100 µM ATP, 5 mM MgCl2, 50 mM Tris/HCl pH 7.5, 37 °C.

A further series concerns T2, O=P(O)(O)OP(=O)(O)O.
T2 construct: 320-residue isoform 6, FADSy domain only, lacks N-terminal FADHy domain; monomer
To be noted: reverse reaction, 0.5 µM FAD, 5 mM MgCl2, 50 mM Tris/HCl pH 7.5, 37 °C.

In series [2] the test system is T3, Nc1ncnc2c1ncn2[C@@H]1O[C@H](COP(=O)(O)OP(=O)(O)OP(=O)(O)O)[C@@H](O)[C@H]1O.
T3 construct: 320-residue isoform 6, FADSy domain only, lacks N-terminal FADHy domain; monomer
As to conditions: forward reaction, 5 mM MgCl2, 50 mM Tris/HCl pH 7.5, 37 °C.

Chain of hFADS6 (human FAD synthase isoform 6) (Homo sapiens; D505A) (chain, as listed by the source D505A): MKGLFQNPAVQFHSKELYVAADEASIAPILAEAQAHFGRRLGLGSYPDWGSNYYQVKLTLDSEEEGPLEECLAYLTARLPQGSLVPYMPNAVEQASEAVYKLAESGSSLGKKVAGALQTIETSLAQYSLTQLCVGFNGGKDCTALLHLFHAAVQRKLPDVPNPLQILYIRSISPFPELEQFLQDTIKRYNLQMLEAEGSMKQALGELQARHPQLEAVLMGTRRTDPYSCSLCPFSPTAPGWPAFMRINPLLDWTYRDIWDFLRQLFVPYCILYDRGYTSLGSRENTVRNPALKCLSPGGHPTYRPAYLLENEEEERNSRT
Chain of hFADS6 (human FAD synthase isoform 6) (Homo sapiens) (chain, as listed by the source): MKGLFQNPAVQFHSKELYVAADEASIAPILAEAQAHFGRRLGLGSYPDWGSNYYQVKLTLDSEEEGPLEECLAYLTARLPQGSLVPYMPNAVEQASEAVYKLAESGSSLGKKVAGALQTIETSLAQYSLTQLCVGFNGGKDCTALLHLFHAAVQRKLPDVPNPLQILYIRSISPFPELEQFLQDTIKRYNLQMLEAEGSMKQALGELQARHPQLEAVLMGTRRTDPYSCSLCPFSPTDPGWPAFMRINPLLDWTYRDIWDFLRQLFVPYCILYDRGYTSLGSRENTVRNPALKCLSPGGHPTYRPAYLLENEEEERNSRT

With “hFADS6 (human FAD synthase isoform 6) (Homo sapiens)”, the Km was 0.13 ± 0.01 µM in series [1], 42 ± 6 µM with O=P(O)(O)OP(=O)(O)O and 6.9 ± 0.5 µM in series [2] (2 µM FMN). Moreover, the values for the kcat in series [1] and in series [2] (2 µM FMN) were 0.047 ± 0.001 s⁻¹ and 0.050 ± 0.001 s⁻¹, respectively.
Take “hFADS6 (human FAD synthase isoform 6) (Homo sapiens; D505A)”: the figures for the Michaelis-Menten constant (Km) (in series [1]; with O=P(O)(O)OP(=O)(O)O; in series [2] (3 µM FMN)) were 1.3 ± 0.3 µM, 60 ± 8 µM and 44 ± 4 µM, respectively. Also, the results for the turnover number (kcat) in series [1] and in series [2] (3 µM FMN) were 0.103 ± 0.007 s⁻¹ and 0.093 ± 0.003 s⁻¹, respectively.
